Assay results published in patent US20220348647A1 (published 2022).
Changes are numbered by the printed parent chain. Names may count otherwise.

B1: C17B302 (antibody, human IgG2, kappa, V domains shown)
VH: EVQLVQSGAEVKKPGESLKISCKGSGYSFTSYWIGWVRQMPGKGLEWMGIIDPSDSDTRYSPSFQGQVTISADKSISTAYLQWSSLKASDTAMYYCARVGPADVWDAFDYWGQGTLVTVSS
VL: DIVMTQSPDSLAVSLGERATINCKSSQSVLLSFDNINKLAWYQQKPGQPPKLLIYDASTRESGVPDRFSGSGSGTDFTLTISSLQAEDVAVYYCQQFYSVPSTFGQGTKVEIKR
B2: C17F24 (parent) (antibody, V domains shown)
VH: B1 VH with A107S
VL: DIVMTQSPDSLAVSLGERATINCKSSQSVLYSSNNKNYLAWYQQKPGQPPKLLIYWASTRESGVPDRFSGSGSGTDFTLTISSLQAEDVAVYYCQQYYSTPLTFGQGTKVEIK
B3: C17B311 (antibody, V domains shown)
VH: B1 VH
VL: DIVMTQSPDSLAVSLGERATINCKSSQSVLLSFDNINKLAWYQQKPGQPPKLLIYDASTRESGVPDRFSGSGSGTDFTLTISSLQAEDVAVYYCQQFYSVPSTFGQGTKVEIK
B4: C17B237 (antibody, V domains shown)
VH: B1 VH with A107S
VL: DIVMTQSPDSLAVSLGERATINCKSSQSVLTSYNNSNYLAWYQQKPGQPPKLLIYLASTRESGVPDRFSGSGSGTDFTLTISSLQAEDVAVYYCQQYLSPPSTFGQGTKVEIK
notes: Full IgG1, kappa
B5: C17B257 (antibody, IgG1, V domains shown)
VH: B1 VH with A107S
VL: B3 VL with D56A
notes: Expressed as IgG1; Light chain N50A (Kabat) variant of C17B234
B6: C17B244 (antibody, V domains shown)
VH: B1 VH with A107S
VL: B3 VL with L31S, F33I, D34T, I36V, K38D, D56T, F97Y, S99H, V100D, S102F
notes: Full IgG1, kappa
B7: C17B235 (antibody, V domains shown)
VH: B1 VH with A107S
VL: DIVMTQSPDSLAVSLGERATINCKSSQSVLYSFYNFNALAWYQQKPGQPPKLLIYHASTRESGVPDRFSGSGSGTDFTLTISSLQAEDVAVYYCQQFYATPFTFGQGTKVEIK
notes: Full IgG1, kappa
B8: C17B238 (antibody, V domains shown)
VH: B1 VH with A107S
VL: B3 VL with L31I, F33A, D34F, I36Q, K38P, F97Y, Y98Q, S99F, V100I, S102F
notes: Full IgG1, kappa
B9: C17B243 (antibody, V domains shown)
VH: B1 VH with A107S
VL: B3 VL with L31N, I36K, K38D, D56E, F97H, Y98W, S99Q, V100T, S102L
notes: Full IgG1, kappa
B10: C17B236 (antibody, V domains shown)
VH: B1 VH with A107S
VL: B3 VL with F33P, D34W, I36S, K38Q, D56G, F97Y, S99L, V100I
notes: Full IgG1, kappa
B11: C17B293 (antibody, IgG1, V domains shown)
VH: B1 VH
VL: B3 VL
notes: Expressed as IgG1; Heavy chain S100cA (Kabat) paired with the light chain of C17B258; also called C17M293

Legend:
human CCL17 [1] = target: T1, human CCL17 (human, UniProt Q92583 24-94); assay: cell-based or functional assay
T1 sequence: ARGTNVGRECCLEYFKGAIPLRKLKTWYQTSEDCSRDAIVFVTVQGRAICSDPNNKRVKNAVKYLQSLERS

cyno CCL17 [2] = target: T2, cyno CCL17 (Macaca fascicularis (cyno), UniProt Q8HYP9 24-94 (rhesus entry)); assay: cell-based or functional assay
T2 sequence: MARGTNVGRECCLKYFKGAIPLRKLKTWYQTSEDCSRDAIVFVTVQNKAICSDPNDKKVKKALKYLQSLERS

human CCL17 [3] = target: T1, human CCL17; assay: cell-based or functional assay; remark: listed apart in the source
cyno CCL17 [4] = target: T2, cyno CCL17; assay: cell-based or functional assay; remark: listed apart in the source
human CCL17 [5] = target: T1, human CCL17; assay: solution equilibrium affinity (MSD-SEA), TBST, 48 h at 4 °C
Protocol: (§1) Equal volumes of the anti-hCCL17 mAbs at 40 pM or 200 pM were added to each chemokine dilution to obtain mixtures containing the serial dilution of chemokines starting at a final concentration of […] and a constant concentration (20 pM or 100 pM) of anti-CCL17 antibody. The mixtures were prepared in duplicate and incubated at 4° C. for 48 hours to reach equilibrium. The free antibody was detected using a SECTOR Imager 6000 (Meso Scale Discovery) instrument. The resulting binding curves were fitted to obtain the dissociation equilibrium constant (KD) using the GraphPad Prism software (v 5.01) using a 1:1 binding model to perform nonlinear least-square regression analysis of the data.

cyno CCL17 [6] = target: T2, cyno CCL17; assay: as above
Protocol: as §1

human CCL17 [7] = target: T1, human CCL17; assay: MSD-SEA; affinity for human CCL17 against that for cyno CCL17
Protocol: as §1

human CCL17 [8] = target: T1, human CCL17; assay: solution equilibrium affinity (MSD-SEA), IgG1
Protocol: as §1

cyno CCL17 [9] = target: T2, cyno CCL17; assay: solution equilibrium affinity (MSD-SEA), IgG1
Protocol: as §1

human CCL17 [10] = target: T1, human CCL17; assay: not stated in the legend (affinities by MSD-SEA in Examples 3 and 4)

Binder | IC50 (nM), calcium flux assay in CCRF-CEM cells, 10 ng/ml human CCL17 (human CCL17 [1]) | IC50 (nM), calcium flux assay in CCRF-CEM cells, 5 ng/ml cyno CCL17 (cyno CCL17 [2]) | IC50 (nM), β-arrestin assay, Hek293 cells co-expressing CCR4, 20 nM CCL17 (human CCL17 [3]) | IC50 (nM), β-arrestin assay, Hek293 cells co-expressing CCR4, 20 nM CCL17 (cyno CCL17 [4]) | Kd (human CCL17 [5]) | Kd (cyno CCL17 [6]) | Fold binding human/cyno CCL17 (human CCL17 [7]) | Kd (human CCL17 [8]) | Kd (cyno CCL17 [9]) | Kd (human CCL17 [10])
B1 | 0.593 nM | 0.238 nM | 13.9 nM | 13.4 nM | – | – | – | – | – | –
B2 | – | – | – | – | 1 nM | – | – | – | – | –
B3 | 0.553 nM | 0.239 nM | 10.7 nM | 10.3 nM | – | – | – | – | – | –
B4 | 0.882 nM | 0.549 nM | – | – | 0.657 nM | 3.07 nM | 4.7 fold | – | – | –
B5 | – | – | – | – | – | – | 656 fold | 0.0001 nM | 0.0656 nM | –
B6 | – | 0.311 nM | – | – | 0.033 nM | 0.565 nM | 17.1 fold | – | – | ≤ 100 nM
B7 | 0.558 nM | 0.919 nM | – | – | 0.072 nM | 9.5 nM | 132 fold | – | – | ≤ 100 nM
B8 | 0.387 nM | 0.348 nM | – | – | 0.115 nM | 1.46 nM | 12.7 fold | – | – | –
B9 | 0.231 nM | 0.31 nM | – | – | 0.028 nM | 0.677 nM | 24.2 fold | – | – | ≤ 100 nM
B10 | 0.385 nM | 0.349 nM | 6.98 nM | 9.5 nM | 0.039 nM | 0.297 nM | 7.6 fold | – | – | ≤ 100 nM
B11 | – | – | – | – | – | – | – | < 0.0001 nM | 0.039 nM | ≤ 100 nM
